{"source": "patent US7598032B2", "about": "“Thermostable DNA polymerases incorporating nucleoside triphosphates labeled with fluorescent dyes” (Roche Molecular Systems, priority 1997, dated 2009)", "molecules": {"B1": {"name": "G46D F667Y E681K Taq: thermostable Taq DNA polymerase with G46D, F667Y and E681K mutations, encoded by plasmid pLK113 (protein, UniProt P19821 1-832, looked up, variant G46D F667Y E681K)", "DNA polymerase I, thermostable": "MRGMLPLFEPKGRVLLVDGHHLAYRTFHALKGLTTSRGEPVQAVYDFAKSLLKALKEDGDAVIVVFDAKAPSFRHEAYGGYKAGRAPTPEDFPRQLALIKELVDLLGLARLEVPGYEADDVLASLAKKAEKEGYEVRILTADKDLYQLLSDRIHVLHPEGYLITPAWLWEKYGLRPDQWADYRALTGDESDNLPGVKGIGEKTARKLLEEWGSLEALLKNLDRLKPAIREKILAHMDDLKLSWDLAKVRTDLPLEVDFAKRREPDRERLRAFLERLEFGSLLHEFGLLESPKALEEAPWPPPEGAFVGFVLSRKEPMWADLLALAAARGGRVHRAPEPYKALRDLKEARGLLAKDLSVLALREGLGLPPGDDPMLLAYLLDPSNTTPEGVARRYGGEWTEEAGERAALSERLFANLWGRLEGEERLLWLYREVERPLSAVLAHMEATGVRLDVAYLRALSLEVAEEIARLEAEVFRLAGHPFNLNSRDQLERVLFDELGLPAIGKTEKTGKRSTSAAVLEALREAHPIVEKILQYRELTKLKSTYIDPLPDLIHPRTGRLHTRFNQTATATGRLSSSDPNLQNIPVRTPLGQRIRRAFIAEEGWLLVALDYSQIELRVLAHLSGDENLIRVFQEGRDIHTETASWMFGVPREAVDPLMRRAAKTINYGVLYGMSAHRLSQKLAIPYEEAQAFIERYFQSFPKVRAWIEKTLEEGRRRGYVETLFGRRRYVPDLEARVKSVREAAERMAFNMPVQGTAADLMKLAMVKLFPRLEEMGARMLLQVHDELVLEAPKERAEAVARLAKEVMEGVYPLAVPLEVEVGIGEDWLSAKE"}}, "key": {"[1]": {"system": "M13 mp18 single-strand DNA template", "test": "Cycle sequencing with fluorescein labeled ddNTPs (dye-terminator sequencing)", "type": "biochemical", "method": "The fluorescein dye labeled dideoxy terminators are reagents from the Applied Biosystems PRISM Sequenase® Terminator Sequencing Kits (Perkin-Elmer, Norwalk, Conn.) and were optimized for use with Sequenase DNA polymerase and alpha-thio dNTPs. Cycle sequencing reactions were performed in a 20 μl volume containing 50 mM Tris-HCl (pH 8.8), 2.0 mM MgCl2, 100 μM each dATP, dCTP, and dTTP (Perkin-Elmer, Norwalk, Conn.), 500 μM dITP (Pharmacia Biotech, Piscataway, N.J.), 0.2 μM13 mp18 single-strand DNA template (Perkin-Elmer), 0.15 μM LacZ Forward Primer (Perkin-Elmer), 5 units of G46D F667Y E681K Taq DNA polymerase, 20 units of rTth Thermostable Pyrophosphatase (U.S. Ser. No. 08/528,384), 0.05 μM Sequenase A Dye Terminator, 0.80 μM Sequenase C Dye Terminator, 0.08 μM Sequenase G Dye Terminator, and 1.0 μM Sequenase T Dye Terminator. All four Sequenase Dye Terminators were purchased from Perkin-Elmer. Reactions were placed in a preheated (75° C.) Perkin-Elmer GeneAmp® PCR System 9600 thermal cycler and subjected to 25 cycles of 96° C. for 10 seconds, 50° C. for 5 seconds, and 60° C. for 4 minutes. Dye labeled fragments were purified with Centri-Sep™ columns (Princeton Separations, Adelphia, N.J.) following the manufacturer's instructions and dried in a vacuum centrifuge. Pellets were resuspended in 6 μl of deionized formamide:50 mg/mL Blue dextran (in 25 mM EDTA, pH 8.0) 5:1 (v/v), heated at 90° C. for 3 minutes, and directly loaded onto a pre-electrophoresed 4% polyacrylamide/6 M urea gel and electrophoresed and analyzed on a Perkin-Elmer ABI PRISM' 377 DNA Sequencer according to the manufacturer instructions (ABI PRISM 377 DNA Sequencer User's Manual)."}, "[2]": {"system": "primer annealed to an M13 template", "test": "Extension rate assay", "type": "biochemical", "conditions": "for extension rate, Base Pairs/Sec: 75° C", "method": "The extension rate of G46D F667Y Taq and G46D F667Y E681K Taq were determined using an extension rate assay. In this experiment, the enzymes were used to extend a primer annealed to an M13 template in the presence of [α-^33P]dCTP. The extension reactions were denatured and the products analyzed by denaturing agarose gel electrophoresis.\nThe assay was performed as previously described (Lawyer et al., 1989, J. Biol. Chem. 264:6427) including the following modifications. The assay mixture was composed so the final concentration was 50 mM Bicine pH 8.3, 25° C., 2.5 mM MgCl2, 1 mM β-mercaptoethanol, 200 μM each of dATP, dGTP and dTTP (Perkin-Elmer), 100 μM dCTP (Perkin-Elmer) containing [α-^33P]dCTP (New England Nuclear, Boston, Mass.). M13 mp18 (Perkin-Elmer) was annealed to primer DG48, (SEQ ID NO: 11), and the equivalent of 0.085 pmoles of the annealed template was added to the assay mixture for each reaction. Forty-five μl of the assay mixture with template DNA was added to each of fourteen 0.5 ml eppendorf tubes. Each tube was preincubated at 75° C. for at least 30 seconds before the start of the polymerase reaction.\nPolymerization was initiated in six of the fourteen assay tubes with 5 μl of G46D F667Y Taq DNA polymerase (2.5 units) or G46D F667Y E681K Taq DNA polymerase (1.25 units). Both enzymes were prepared as in Example I and the concentration used represents a predetermined excess amount of enzyme for the amount of substrate in the assay. As a control for the level of background, the remaining negative control was initiated with enzyme dilution buffer rather than polymerase. All reaction tubes were immediately vortexed briefly and incubated at 75° C. Two of the six tubes containing G46D F667Y Taq DNA polymerase were incubated 3 minutes, two for 6 minutes and two for 10 minutes. Similarly, two of the tubes started with G46D F667Y E681K Taq DNA polymerase were incubated for 30 seconds, two for 1 minute and two for 2 minutes. The control tubes were incubated for 3 minutes. The reactions were stopped by addition of 10 μl 60 mM EDTA and stored at 0° C.\nFor each reaction, a 25 μl aliquot of the 60 μl reaction was diluted with 1 ml 2 mM EDTA, 50 μg/ml sheared salmon sperm DNA as a carrier. The DNA was precipitated with TCA using standard procedures and collected on GF/C filter discs (Whatman). The amount of incorporated [α-^33P]dCMP was determined for each sample.\nThe remaining 35 μl of each duplicated were combined and the 70 μl sample was ethanol precipitated, dried and resuspended in 50 mM NaOH, 1 mM EDTA. Aliquots were removed from these samples such that an equal number of α-^33P] counts were taken from each. These aliquots were loaded on an 0.9% alkaline agarose gel, electrophoresed, dried and autoradiographed as previously described (Maniatis et al., 1982, In Molecular Cloning: A Laboratory Manual, Cold Spring Harbor Laboratory, Cold Spring Harbor, N.Y.) Bacteriophage lambda DNA cut with restriction enzyme HindIII (BRL) and 5′ end-labeled with [^32P] was used as a molecular weight standard.\nThe length in base pairs of the extension product in each sample was determined by comparison of the migration distance of each sample with the distance migrated by the lambda DNA size standard. The number of base pairs in each product was divided by the number of seconds each extension reaction incubated to give the extension rate as shown below."}}}
{"molecule": "B1", "values": [{"measurement": "accuracy of automated base-calling", "setting": "[1]; for 450 bases, ABI PRISM 377 DNA Sequencer, 1 μM or less ddNTP", "result": "greater than 98.5%"}, {"measurement": "base-calling errors", "setting": "[1]; for bases +10 to +460 from primer", "result": 6, "unit": "errors"}, {"measurement": "sequencing ladder with fluorescein dye family-labeled ddNTPs", "setting": "[1]; sequencing reaction with fluorescein dye family-labeled ddNTPs", "result": "readable sequencing ladder"}, {"measurement": "extension rate, Base Pairs/Sec", "setting": "[2]; Time 30 sec.", "result": 36.7, "unit": "Base Pairs/Sec"}, {"measurement": "extension rate, Base Pairs/Sec", "setting": "[2]; Time 1 min.", "result": 41.7, "unit": "Base Pairs/Sec"}, {"measurement": "extension rate, Base Pairs/Sec", "setting": "[2]; Time 2 min", "result": 52.9, "unit": "Base Pairs/Sec"}, {"measurement": "extension rate (in words)", "setting": "[2]; relative to an enzyme with the F667Y mutation alone", "result": "significantly increased extension rate"}]}
